In publication PMC2621353, “Residues Clustered in the Light-Sensing Knot of Phytochrome B are Necessary for Conformer-Specific Binding to Signaling Partner PIF3” (PLoS Genetics, 2009):

B1: full-length phytochrome B (phyB), wild type, in vitro translated [modified: 35S-methionine labelled; 35S-methionine labelled] [Arabidopsis thaliana] / GAD-PIF3, in vitro translated [modified: 35S-methionine labelled … (parent)
chain 1: MVSGVGGSGGGRGGGRGGEEEPSSSHTPNNRRGGEQAQSSGTKSLRPRSNTESMSKAIQQYTVDARLHAVFEQSGESGKSFDYSQSLKTTTYGSSVPEQQITAYLSRIQRGGYIQPFGCMIAVDESSFRIIGYSENAREMLGIMPQSVPTLEKPEILAMGTDVRSLFTSSSSILLERAFVAREITLLNPVWIHSKNTGKPFYAILHRIDVGVVIDLEPARTEDPALSIAGAVQSQKLAVRAISQLQALPGGDIKLLCDTVVESVRDLTGYDRVMVYKFHEDEHGEVVAESKRDDLEPYIGLHYPATDIPQASRFLFKQNRVRMIVDCNATPVLVVQDDRLTQSMCLVGSTLRAPHGCHSQYMANMGSIASLAMAVIINGNEDDGSNVASGRSSMRLWGLVVCHHTSSRCIPFPLRYACEFLMQAFGLQLNMELQLALQMSEKRVLRTQTLLCDMLLRDSPAGIVTQSPSIMDLVKCDGAAFLYHGKYYPLGVAPSEVQIKDVVEWLLANHADSTGLSTDSLGDAGYPGAAALGDAVCGMAVAYITKRDFLFWFRSHTAKEIKWGGAKHHPEDKDDGQRMHPRSSFQAFLEVVKSRSQPWETAEMDAIHSLQLILRDSFKESEAAMNSKVVDGVVQPCRDMAGEQGIDELGAVAREMVRLIETATVPIFAVDAGGCINGWNAKIAELTGLSVEEAMGKSLVSDLIYKENEATVNKLLSRALRGDEEKNVEVKLKTFSPELQGKAVFVVVNACSSKDYLNNIVGVCFVGQDVTSQKIVMDKFINIQGDYKAIVHSPNPLIPPIFAADENTCCLEWNMAMEKLTGWSRSEVIGKMIVGEVFGSCCMLKGPDALTKFMIVLHNAIGGQDTDKFPFPFFDRNGKFVQALLTANKRVSLEGKVIGAFCFLQIPSPELQQALAVQRRQDTECFTKAKELAYICQVIKNPLSGMRFANSLLEATDLNEDQKQLLETSVSCEKQISRIVGDMDLESIEDGSFVLKREEFFLGSVINAIVSQAMFLLRDRGLQLIRDIPEEIKSIEVFGDQIRIQQLLAEFLLSIIRYAPSQEWVEIHLSQLSKQMADGFAAIRTEFRMACPGEGLPPELVRDMFHSSRWTSPEGLGLSVCRKILKLMNGEVQYIRESERSYFLIILELPVPRKRPLSTASGSGDMMLMMPY
chain 2: MPLFELFRLTKAKLESAQDRNPSPPVDEVVELVWENGQISTQSQSSRSRNIPPPQANSSRAREIGNGSKTTMVDEIPMSVPSLMTGLSQDDDFVPWLNHHPSLDGYCSDFLRDVSSPVTVNEQESDMAVNQTAFPLFQRRKDGNESAPAASSSQYNGFQSHSLYGSDRARDLPSQQTNPDRFTQTQEPLITSNKPSLVNFSHFLRPATFAKTTNNNLHDTKEKSPQSPPNVFQTRVLGAKDSEDKVLNESVASATPKDNQKACLISEDSCRKDQESEKAVVCSSVGSGNSLDGPSESPSLSLKRKHSNIQDIDCHSEDVEEESGDGRKEAGPSRTGLGSKRSRSAEVHNLSERRRRDRINEKMRALQELIPNCNKVDKASMLDEAIEYLKSLQLQVQIMSMASGYYLPPAVMFPPGMGHYPAAAAAMAMGMGMPYAMGLPDLSRGGSSVNHGPQFQVSGMQQQPVAMGIPRVSGGGIFAGSSTIGNGSTRDLSGSKDQTTTNNNSNLKPIKRKQGSSDQFCGSS

Variants of: B1
Assay: in vitro co-immunoprecipitation
Details: with GAD-PIF3, in vitro translated [modified: 35S-methionine labelled, GAD-PIF3 as bait, phyB as prey, 35S-met in vitro translated proteins
[1] = phyB in Pfr form, parent: 17, read off a plot
[2] = phyB in Pr form, parent: 1, read off a plot
[3] = phyB in Pfr form, parent: 13, read off a plot
[4] = phyB in Pfr form, parent: 9.1, read off a plot
[5] = phyB in Pfr form, parent: 3.8, read off a plot

Variant | screen value (relative to wild-type phyB Pr = 1) [1] | screen value (relative to wild-type phyB Pr = 1) [2] | screen value (relative to wild-type phyB Pr = 1) [3] | screen value (relative to wild-type phyB Pr = 1) [4] | screen value (relative to wild-type phyB Pr = 1) [5]
chain 1 V264E | – | 2 | 1.9 | – | –
chain 1 P411L | – | 1 | – | 4.1 | –
chain 1 G348D | – | 1 | 2.6 | – | –
chain 1 S367P | 4.8 | 2.4 | – | – | –
chain 1 C119Y | – | 0.45 | – | – | 0.9
chain 1 L256C | – | 1 | 2.8 | – | –

The next lines start with the values.

screen value (relative to wild-type phyB Pr = 1) [1] | screen value (relative to wild-type phyB Pr = 1) [2] | screen value (relative to wild-type phyB Pr = 1) [3] | screen value (relative to wild-type phyB Pr = 1) [4] | screen value (relative to wild-type phyB Pr = 1) [5] | Variant
3.9 | 2 | – | – | – | chain 1 V273L
– | 1.6 | – | 3.1 | – | chain 1 S134G
2.3 | 1 | – | – | – | chain 1 I308T
– | 1.4 | 1.7 | – | – | chain 1 S343Y
5.1 | 2 | – | – | – | chain 1 C345R
– | 0.45 | – | – | 0.58 | chain 1 R415W
